Assays:
[1] = Water activity (Aqua lab water activity meter); assay type: physicochemical; conditions: REV, 10% SMP, 10 Torr (200 W)
Description: The puffed foam material was removed from the drier and packed in polyethylene bags. The final moisture content and water activity of the dried foams were measured after 24 hours of drying (allow the sample to equilibrate) using air oven method and Aqua lab water activity meter (model series 3, Decagon Device Inc., Washington, USA).
The puffed foam structure was removed from the drier and packed in polyethylene bags. The final moisture content and water activity of the dried foams were measured after 24 hours of drying (allow the sample to equilibrate) using air oven method and Aqua lab water activity meter (model series 3, Decagon Device Inc., Washington, USA).
The water activity of the samples before microwave vacuum drying, immediately after drying and during storage was measured (Aqualab R Model series 3, Decagon Devices, Inc., Washington, USA).

[2] = cited from earlier work
[3] = tested on: Micrococcus luteus cell wall suspension; experiment: Lysozyme activity, turbidity assay; assay type: biochemical; conditions: lysozyme-chitosan 1:3 pastes; for lysozyme enzymatic activity after drying: t-REV 300 Watts, 30 Torr, 10 min
Description: Lysozyme activity was determined by the turbidity assay method using freeze-dried Micrococcus luteus cell wall suspension.

Substance	aw [1]	retention during pelleting ([2]; encapsulated with hydrogenated vegetable oil and calcium stearate)	loss after the feed pelleting process ([2]; unprotected lysozyme, pelleting at 195° F.)	increase in lysozyme activity after t-REV ([3]; before versus after t-REV)	lysozyme enzymatic activity after drying [3]	lysozyme enzymatic activity after drying ([3]; listed as Lysozyme)
Bifidobacterium longum	0.36 ± 0.01	–	–	–	–	–
lysozyme: Lysozyme extracted from chicken egg-white (Neova Technologies Inc.)	–	up to 75%	More than 50%	about 10%	no enzymatic activity loss	retained its activity

From patent publication US8877469B2, “Method of drying biological material” (Enwave Corporation, priority 2004, dated 2014)
